Measured values as given in patent EP4170021A1.

Target: MCR-1 protein
Assay: indirect ELISA, plate coated with MCR-1 protein at 0.2 ug/mL, purified antibody serially diluted
Conditions: scale: dilution factor

B1: mouse anti-MCR-1 protein antibody 1BH8 (antibody, V domains shown)
VH: VQLQQSGPELVKPGASVKMSCRASGYTFTNYIMHWVKQKPGQGLDWIGYINPYNDGTKYNEKFKGKATLSSDKSSGTAYMDLSSLTSEDSAVYYCARGPYGNYAMDYWGQGTSVTVSS
VL: DVLMTQTPLSLPVSLGDQASISCRSSQNIVCSYGNPCLEWYLQKPGQSPKLLIYKVSNRFSGVPDRFSGSGSGTDFTLKISRVEAEDLGVYYCFQGSHVPWTFGGGTELEIKR
  titer: > 1.28e+06

B2: mouse anti-MCR-1 protein antibody 1BD9 (antibody, V domains shown)
VH: VKLQQSGPELVKPGASVKVSCKASGYAFTSCNMYWVKQSHGKSLEWIGYFDPYSGDAYYNQKFKDKATLTVDKSSSTAYMHLNSLTSEDSAVYYCASWLQLYYALDYWGQGTSVTVSA
VL: AIQMTQTPSSLSASLGDRVTISCRASQDISNYLNWYQQKPDGTVKLLIYYTSRLHSGVPSRFSGSGSGTDYSLNISNLEQEDFATYFCQQGDMIPDTFGGGTKLEIKR
  titer: > 1.28e+06
